Test [1] deals with T1, TLR7 (Mus musculus, UniProt P58681).
T1 sequence (P58681 27-1050): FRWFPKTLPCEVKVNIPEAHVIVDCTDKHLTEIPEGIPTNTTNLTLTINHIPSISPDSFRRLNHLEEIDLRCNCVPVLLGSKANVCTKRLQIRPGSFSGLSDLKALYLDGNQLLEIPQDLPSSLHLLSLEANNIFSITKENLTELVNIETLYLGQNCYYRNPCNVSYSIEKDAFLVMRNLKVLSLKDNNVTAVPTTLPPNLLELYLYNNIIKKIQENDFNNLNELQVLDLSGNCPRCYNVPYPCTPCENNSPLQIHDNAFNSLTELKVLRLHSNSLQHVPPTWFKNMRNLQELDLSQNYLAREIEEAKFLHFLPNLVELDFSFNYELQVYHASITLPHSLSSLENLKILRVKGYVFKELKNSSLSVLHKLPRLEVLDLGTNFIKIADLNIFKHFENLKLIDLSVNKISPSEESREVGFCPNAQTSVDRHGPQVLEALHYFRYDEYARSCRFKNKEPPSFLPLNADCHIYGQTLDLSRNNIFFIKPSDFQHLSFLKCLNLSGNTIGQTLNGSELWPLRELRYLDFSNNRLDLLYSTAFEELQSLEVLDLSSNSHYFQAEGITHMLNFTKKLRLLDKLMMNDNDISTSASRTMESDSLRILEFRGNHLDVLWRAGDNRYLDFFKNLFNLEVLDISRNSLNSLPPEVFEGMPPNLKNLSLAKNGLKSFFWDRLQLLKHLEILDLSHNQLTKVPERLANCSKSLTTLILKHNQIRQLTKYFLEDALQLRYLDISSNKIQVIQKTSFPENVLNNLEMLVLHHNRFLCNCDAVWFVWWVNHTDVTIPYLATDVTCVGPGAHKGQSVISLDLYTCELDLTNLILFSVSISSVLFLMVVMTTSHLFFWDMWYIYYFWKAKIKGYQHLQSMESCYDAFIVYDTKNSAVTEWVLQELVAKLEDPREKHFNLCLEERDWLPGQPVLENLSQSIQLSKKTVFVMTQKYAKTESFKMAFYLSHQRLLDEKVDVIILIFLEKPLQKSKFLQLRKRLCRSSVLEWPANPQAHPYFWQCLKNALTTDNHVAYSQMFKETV
Put plainly: murine TLR7 response. The format is cell-based.

Test [2] deals with T2, TLR9 (Mus musculus, UniProt Q9EQU3).
T2 construct: using the murine macrophage cell line RAW264.7; endogenous in cells; host or cells: RAW264.7
T2 sequence (Q9EQU3 26-1032): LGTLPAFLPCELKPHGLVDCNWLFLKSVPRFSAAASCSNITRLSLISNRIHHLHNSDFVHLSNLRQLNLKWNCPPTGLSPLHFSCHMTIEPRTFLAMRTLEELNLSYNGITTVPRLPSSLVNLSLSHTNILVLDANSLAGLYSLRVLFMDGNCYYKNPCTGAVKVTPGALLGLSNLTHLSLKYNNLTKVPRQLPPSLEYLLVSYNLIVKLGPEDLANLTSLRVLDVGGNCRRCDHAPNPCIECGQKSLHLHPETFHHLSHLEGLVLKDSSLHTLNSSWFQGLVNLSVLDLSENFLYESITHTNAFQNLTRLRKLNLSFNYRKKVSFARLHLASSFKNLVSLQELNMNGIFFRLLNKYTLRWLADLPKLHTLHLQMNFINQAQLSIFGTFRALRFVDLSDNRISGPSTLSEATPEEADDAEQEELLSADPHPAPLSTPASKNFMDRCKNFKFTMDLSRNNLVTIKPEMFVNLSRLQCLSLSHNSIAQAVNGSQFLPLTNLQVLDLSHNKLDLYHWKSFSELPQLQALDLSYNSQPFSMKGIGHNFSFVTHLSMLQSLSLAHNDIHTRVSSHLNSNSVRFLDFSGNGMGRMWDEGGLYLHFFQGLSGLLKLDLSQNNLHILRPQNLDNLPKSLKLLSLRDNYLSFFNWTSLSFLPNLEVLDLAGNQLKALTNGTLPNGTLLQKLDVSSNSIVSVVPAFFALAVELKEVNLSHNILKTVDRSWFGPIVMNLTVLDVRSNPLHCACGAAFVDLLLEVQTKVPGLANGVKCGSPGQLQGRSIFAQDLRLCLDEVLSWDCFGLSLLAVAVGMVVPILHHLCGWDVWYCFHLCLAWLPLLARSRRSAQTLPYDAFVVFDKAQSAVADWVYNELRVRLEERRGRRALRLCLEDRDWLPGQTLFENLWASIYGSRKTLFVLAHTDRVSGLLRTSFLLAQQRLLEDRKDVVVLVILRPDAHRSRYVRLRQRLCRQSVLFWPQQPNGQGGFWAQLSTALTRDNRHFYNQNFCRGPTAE
Put plainly: CpG-induced TNFα in RAW264.7 cells, ELISA. The format is cell-based, murine. To be noted: peptide 5 or 20 μM 1 h before CpG, supernatant 24 h. On the procedure:
FIGS. 2A and B are bar charts showing the effect of peptides derived from A46 on CpG-induced TNFα in murine RAW264.7 cells. A46 peptides were added to the cells at a concentration of 5 or 20 μM 1 hour before stimulating with […] CpG. Supernatants were collected 24 hours after stimulation and assayed for TNFα by ELISA. No peptides were added into the control wells (black bars). (A) peptides A461-A467 (SEQ ID NO. 17 to 23). (B) peptides A468-A4614 (SEQ ID NO. 24 to 30) (excluding A4612 SEQ ID NO. 28). Data is representative of at least two experiments each performed in triplicate and is expressed as mean±s.d;
Cytokine and chemokine production from cells or mouse serum was measured by ELISA using Duoset kits from R&D systems, according to the manufacturer's instructions.
These peptides were initially screened for effects on TLR-induced gene induction in vitro using the murine macrophage cell line RAW264.7. Unmethylated CpG dinucleotides of bacterial DNA sequences are detected by TLR9, which leads to production of pro-inflammatory cytokines and chemokines, including TNFα via a MyD88-dependent pathway (Latz et al, 2004). […] The effect of the peptides on two TLR9-induced cytokines, namely TNFα and MIP-2, was measured by ELISA. TNFα is NFκB-dependent, and MIP-2 as well as NFκB also requires IRFs for transcriptional activation (De Filippo et al, 2008). […]

KYSFKLILAEYRRRRRRRRR [Peptide A464]: in test [1], the “inhibition of murine TLR7” value is listed as “insensitive”. Also, the “inhibition of CpG-induced TNFα production” value in test [2] is given as “little or no effect”.

(Values after patent US8722052B2, “Vaccinia virus protein A46 peptide and use thereof” (priority 2008, dated 2014).)
